Read-outs that look alike come from different tables or passages of the source.
Key:
[1] = target: LY6A (Ly6a, C57BL/6J mouse) (mouse (C57BL/6J)) (UniProt P05533); test: AAV library bound to Ly6a-transfected HEK293T cells, NGS
[2] = target: LY6C1 (Ly6c1, C57BL/6J mouse, splice variant 1) (mouse (C57BL/6J)) (UniProt P0CW02); test: AAV library bound to Ly6c1-transfected HEK293T cells, NGS
[3] = target: LY6C1 (Ly6c1, C57BL/6J mouse, splice variant 1) (mouse (C57BL/6J)) (UniProt P0CW02); test: cell-based or functional assay
[4] = target: LY6A (Ly6a, C57BL/6J mouse) (mouse (C57BL/6J)) (UniProt P05533); test: AAV library bound to Ly6a-transfected HEK293T cells, NGS; remark: listed apart in the source
[5] = target: LY6C1 (Ly6c1, C57BL/6J mouse, splice variant 1) (mouse (C57BL/6J)) (UniProt P0CW02); test: AAV library bound to Ly6c1-transfected HEK293T cells, NGS; remark: listed apart in the source
[6] = target: LY6A (Ly6a, C57BL/6J mouse) (mouse (C57BL/6J)) (UniProt P05533); test: qPCR of viral genomes bound to Ly6a-transfected HEK293T cells
[7] = target: LY6A (Ly6a, C57BL/6J mouse) (mouse (C57BL/6J)) (UniProt P05533); test: cell-based or functional assay
[8] = target: LY6A (Ly6a, C57BL/6J mouse) (mouse (C57BL/6J)) (UniProt P05533); test: binding (qPCR) and transduction of cells with ectopic LY6A
[9] = target: LY6A (Ly6a, C57BL/6J mouse) (mouse (C57BL/6J)) (UniProt P05533); test: qPCR of viral genomes bound to BMVECs treated with Ly6a sgRNAs (CRISPR/SaCAS9)

UniProt P05533, sequence (P05533 27-112 limits assumed): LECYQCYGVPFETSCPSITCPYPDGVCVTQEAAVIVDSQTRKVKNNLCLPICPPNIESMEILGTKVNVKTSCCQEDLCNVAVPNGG
UniProt P0CW02, sequence (P0CW02 27-109 limits assumed, change not shown): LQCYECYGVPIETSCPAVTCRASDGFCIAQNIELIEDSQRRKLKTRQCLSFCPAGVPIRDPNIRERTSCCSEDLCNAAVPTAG

Row | Substance | fold enrichment (log2) [4] [log2] | fold enrichment (log2) [5] [log2] | other results
1 | AAV9 K449R 7-mer variant C1 (KSAGSIY) | – | – | fold enrichment (log2) [1]: 1.41 log2; fold enrichment (log2) [2]: 6.12 log2
2 | AAV9 K449R 7-mer variant C3 (WGTPPRG) | – | – | fold enrichment (log2) [1]: 1.01 log2; fold enrichment (log2) [2]: 6.35 log2
3 | AAV9 K449R 7-mer variant C5 (ELYKLPT) | – | – | fold enrichment (log2) [1]: -2.26 log2; fold enrichment (log2) [2]: 5.38 log2
4 | AAV9 K449R 7-mer variant C28 (KSVGSVY) | – | – | transduction of hCMEC cells (firefly luciferase assay) (logs (base 10)) [3]: 2; fold enrichment (log2) [1]: -1.24 log2; fold enrichment (log2) [2]: 3.59 log2
5 | AAV9 K449R 7-mer variant SINKPFV | 4.74 | -0.3 | –
6 | AAV9 K449R 7-mer variant SIYLGSQ | -0.76 | 4.47 | –
7 | AAV9 K449R 7-mer variant SKGSYST | 1.54 | 2.74 | –
8 | AAV9 K449R 7-mer variant SKSGYSA | -3.32 | 2.14 | –
9 | AAV9 K449R 7-mer variant SKTGYST | -3.55 | 4.43 | –
10 | AAV9 K449R 7-mer variant SLDFKNI | 4.61 | -1.29 | –
11 | AAV9 K449R 7-mer variant SLSKPFS | 2.19 | -2.08 | –
12 | AAV9 K449R 7-mer variant SNDRPFI | 5.43 | -1.02 | –
13 | AAV9 K449R 7-mer variant SQKTPFL | 3.81 | -3.55 | –
14 | AAV9 K449R 7-mer variant SSEKPFQ | 2.69 | -3.55 | –
15 | AAV9 K449R 7-mer variant SSTGYSS | -1.93 | 4 | –
16 | AAV9 K449R 7-mer variant STRGYSA | 1.08 | 3.55 | –
17 | AAV9 K449R 7-mer variant STTFKDI | 3.44 | -3.32 | –
18 | AAV9 K449R 7-mer variant SYIGASS | -1.01 | 5.08 | –
19 | AAV9 K449R 7-mer variant SYQGYSS | 1.47 | 5.21 | –
20 | AAV9 K449R 7-mer variant TDTRPFI | 4.19 | -3.32 | –

Row | Substance | fold enrichment (log2) [4] [log2] | fold enrichment (log2) [5] [log2] | other results
21 | AAV9 K449R 7-mer variant TEKWTSS | 0.98 | 4.43 | –
22 | AAV9 K449R 7-mer variant TGTSPFK | 2.22 | -3.32 | –
23 | AAV9 K449R 7-mer variant TITFKDV | 5.15 | -0.78 | –
24 | AAV9 K449R 7-mer variant TKSGYST | 0.68 | 5.71 | –
25 | AAV9 K449R 7-mer variant TKSTPFI | 2.6 | -1.85 | –
26 | AAV9 K449R 7-mer variant TKYMHSS | 1.35 | 4.24 | –
27 | AAV9 K449R 7-mer variant TLAYPFK | 3.93 | -0.72 | –
28 | AAV9 K449R 7-mer variant TQQGYSS | -0.92 | 5.8 | –
29 | AAV9 K449R 7-mer variant TRDLPFK | 4.34 | -1.36 | –
30 | AAV9 K449R 7-mer variant TRFGAST | 0 | 4.32 | –
31 | AAV9 K449R 7-mer variant TRFGSST | 1.29 | 3.63 | –
32 | AAV9 K449R 7-mer variant TRNGYST | 0.82 | 5.58 | fold enrichment (log2) [1]: 0.186 log2; fold enrichment (log2) [2]: 4.05 log2
33 | AAV9 K449R 7-mer variant TRTGYST | 0.89 | 4.63 | –
34 | AAV9 K449R 7-mer variant TRTSGAS | 0.43 | 3.85 | –
35 | AAV9 K449R 7-mer variant TSFKPFP | 3.11 | 0.48 | –
36 | AAV9 K449R 7-mer variant TSMKPFL | 3.49 | -0.98 | –
37 | AAV9 K449R 7-mer variant TTMKPFN | 2.95 | -3.74 | –
38 | AAV9 K449R 7-mer variant TVMAPFK | 5.53 | -0.19 | –
39 | AAV9 K449R 7-mer variant TVTGYSS | -3.91 | 3.22 | –
40 | AAV9 K449R 7-mer variant TYGGYSQ | -0.34 | 2.02 | –

Row | Substance | fold enrichment (log2) [4] [log2] | fold enrichment (log2) [5] [log2] | other results
41 | AAV9 K449R 7-mer variant TYKSGSS | 1.95 | 3.78 | –
42 | AAV9 K449R 7-mer variant VAERPFK | 6.38 | 1.22 | –
43 | AAV9 K449R 7-mer variant VAVFKNV | 4.23 | -0.91 | –
44 | AAV9 K449R 7-mer variant VKGGYSS | 0.07 | 3.3 | –
45 | AAV9 K449R 7-mer variant VKVGFSS | -2.25 | 4.22 | –
46 | AAV9 K449R 7-mer variant VNRGYSS | 0.89 | 5.18 | –
47 | AAV9 K449R 7-mer variant VPRYGSS | -1.01 | 3.55 | –
48 | AAV9 K449R 7-mer variant VRPGWST | 1.02 | 5.89 | –
49 | AAV9 K449R 7-mer variant VTHGYSS | -0.84 | 3.25 | –
50 | AAV9 K449R 7-mer variant VYPGYST | -3.32 | 2.21 | –
51 | AAV9 K449R 7-mer variant WRQGYAS | -0.09 | 2.89 | –
52 | AAV9 K449R 7-mer variant YENRPFV | 2.23 | -3.32 | –
53 | AAV9 K449R 7-mer variant YLKGYSA | 0.15 | 4.46 | –
54 | AAV9 K449R 7-mer variant YVGNPFK | 4.53 | 0.58 | –
55 | AAV-PHP.B | – | – | fold increase in binding on Ly6a expression [6]: > 50 fold
56 | AAV-PHP.B2 | – | – | fold increase in binding on Ly6a expression [6]: > 50 fold
57 | AAV-PHP.B3 | – | – | fold increase in binding on Ly6a expression [6]: > 50 fold
58 | AAV-PHP.eB | – | – | transduction of HEK293T cells (Luciferase assay) [7]: 30 fold; transduction of hCMEC cells (firefly luciferase assay) (logs (base 10)) [7]: 2; fold increase in binding and transduction on LY6A expression [8]: > 30 fold; fold increase in binding on Ly6a expression [6]: > 50 fold; reduction in binding after Ly6a disruption [9]: 50%

— US20220143214A1
